Source: the nanobody polyreactivity screen of Harvey et al. (2022)

Assay: yeast display, Sf9 membrane polyspecificity reagent, FACS + sequencing; frameworks hold sequencing errors
Method in brief: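 Using colony PCR, genes from sorted yeast display clones were amplified, then sequenced on MiSeq at 2 × 250 and filtered by CDR length. The clones had been stained with 10% biotinylated, detergent-solubilized Sf9 membrane reagent for 1 hour at 4 °C and sorted by FACS into low and high (top ~1%) gates on anti-HA and streptavidin fluorescence. Polyreactivity labels come from the gate of origin.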

Sequence | polyreactivity (PSR sort gate)
QVQLVESGGGLVQAGGSLRLRCAASGRIFRGYAMGWYRQAPGKERELVAAISWSGGSSTYADSVKGRFTISLDNAKNTVYLQMNSLKPEDTAVYDCNRVSRGRGRLTVDYQAEGYDSWGQGTQVTVSS | high polyreactivity
QVQLVESGGGLVQAGGSLRLRCAASGRIFYFNAMGWYRQAPGKEREFVASINSIGDSTYYADSVKGRFTISRDTAKNTVYLQMNSLKPEDTAVYYCNADHGVINYRLDYWGQGTQVTVSS | low polyreactivity
QVQLVESGGGLVQAGGSLRLRCAASGRILVRYAMGWYRQAPGKERELVAAISRGGSTTYADSVKGRFTISRDNAKNTVYLQMNSLKPEDTAVYYCAAGRYPYNRDYWGQGTQVTVSS | high polyreactivity
QVQLVESGGGLVQAGGSLRLRCAASGRNIHWYAMGWSRQAPGKEMELVAAITGSGGRTSYADSVKGRFTISRDFAKNTVYLQMNSLKPQDTAVYYCAKRATWYTVPREGYWGQGTQVTVSS | high polyreactivity
QVQLVESGGGLVQAGGSLRLRCAASGRTFGPYTMGWYRQAPGKEREFVAAINSSGSRTYYADSVKGRFTISRDNAKNTVYLQMNSLKPEDTAVYYCAAEAKWYYSWSYPYEGDYWGQGTQVTVSS | low polyreactivity
QVQLVESGGGLVQAGGSLRLRCAASGRTFIVYAMGWYRQAPGKERELVARISSGSRTSYADSVKGRFTISRDNAKNTVYLQMNSLKPEDTAVYYCAKSRVIKYEFDYWGQGTEVTVSS | low polyreactivity
QVQLVESGGGLVQAGGSLRLRCAASGRTIGPYAMGWYRQEPRKERELVAAISWSGGSTYYADSVKGRFTISRDNAKNTVYLQMNSLKPVDTAVYFCAAVYYSHVYYWGQGTQVTVSS | high polyreactivity
QVQLVESGGGLVQAGGSLRLRCAASGRTVVGTTMGWYRQAPGKEREVVAAISSGGRTYYADSVKGRFTISRDNAKNTVYLQMNSLIPVDTAVYYCAARRRGKVVPTSQFDYWGQGTQVTVSS | high polyreactivity
QVQLVESGGGLVQAGGSLRLRCAASGSIFFYYVMGLSRQAPGKERELVAVISSGGGSTYYADSVKGRFTISRDNAKYTVYLQMNSLKPEDTAVYYCAAGTYYKFYYWGQGTQVTESS | high polyreactivity
QVQLVESGGGLVQAGGSLRLRCAASGSIFGAYAMAWYRQAPGKERELVAAINSDISTNYADSVKGRFTISRDNAKNTVYFQMTSVKPEDTAVYYCGVDWPRIYLRYNYWGQGTAVTVSS | low polyreactivity
QVQLVESGGGLVQAGGSLRLRCAASGSIFNFYAMGGYRQAPGKERELVATINWSGGRTYYADSVKGRFTISRDNATNTVYLQMNSLNTEDTAVYYCAASRYFRGDYWGQGTQGTVSS | high polyreactivity
QVQLVESGGGLVQAGGSLRLRCAASGSIFNSYAMGWYRQAPGKERELVAAISIRGTRTYYADSVKGRFTISRDNAKNTVYLQMNSLKPEDTAVYYCAADASYTEGMDYWGQGTQVTVSS | high polyreactivity
QVQLVESGGGLVQAGGSLRLRCAASGSIFYGYAMGWYRQAPGKESEFVAAITTTGGSTYYADSVKGRFTISRDNSKYTVYLQMNSLKPEDTAVYYCATSGDRLVWGQVTQVTVSS | low polyreactivity
QVQLVESGGGLVQAGGSLRLRCAASGSTFAWYAMGWYRQAPGKESELVAAITQNGGRTYYADSVKGRFTISRDNAKNTVYLQMNSLKPEDTAVYYCANAFIQPGYKYDSWGQVTQVTVSS | high polyreactivity
QVQLVESGGGLVQAGGSLRLRCAASGSTFAYYAMGWYRQAPGKERELVAAISSGGSTYYADSVKGRFTISRDNAKNTVYIQMNSLKAEETAVYYCNKLRVVKFKRYEFGEWGQGTQVTVSS | low polyreactivity
QVQLVESGGGLVQAGGSLRLRCAASGSTFVPYAMGWYRQAPWKERELVAAITWNGGRTYYADSVKGRYTISRDNANNTVYLQMNSLKPEDTAVYFCNGLSYTWACYYWGQGTRVTVSS | high polyreactivity
QVQLVESGGGLVQAGGSLRLRCAASGSTFYRYALGWYRQAPGKERELVAVITSGGGTYSADSVKGRFSISRDNAKNTVYLQLNSRKPEDTAVYDCAARYLRTRNYQYDYWGQGTQVTVSS | high polyreactivity
QVQLVESGGGLVQAGGSLRLRCAASGSTFYYYAMGWYRQAPGKERELVAANTLRGTSTYYADSVKGRFTISRDNAKNTVYLQMNRLKPEDTAVYYCAVETYYSIFDIYDYWGQGTQVTVSS | low polyreactivity
QVQLVESGGGLVQAGGSLRLRCAASGSTLYIYAMGWYRQAPGKERELVAAITSSTGSTYADSVKGRFTISRDNAKNTVYLQMNSLKPEDTAVYYCNAGGPLQPYDYWGQGTQVTVSS | low polyreactivity
QVQLVESGGGLVQAGGSLRLRCAASGYIFGAYALGWYRQAPGKERELVAAIHVGDASAYYADSVKGRFTISRDNAKKTVYLQMNSLKPEDTAVYYCAKDRGSWEWYTVDYWGQGTQVTVSS | low polyreactivity
QVQLVESGGGLVQAGGSLRLRCAASGYTLGPYAMGWYRQAPGKERELVAAISWGGGRTYYADSVKGRFTISRDNAKNTVYLQMNSLKPEDTAVYYCAAKWSHVRDGPKYDYWGQGTQVTVSS | low polyreactivity
QVQLVESGGGLVQAGGSLRLRCAAYGSNFVLNAMGLDRKAPGKERELVAAISRGGASTYYADSVKGRFTIARDNSKNTVYLQMTSLKPEDTAVYYCNASGYGQGVVIYLVLYDYWGQGTQVTVSS | low polyreactivity

Sequence | polyreactivity (PSR sort gate)
QVQLVESGGGLVQAGGSLRLRSASSGYILFAYAMVWYRQAPGKERELVATISNYGGITYYAESVKGRFTISRDNAKNTVYLQMNRLKPEDNAVYYCAAAEAGGLVTYDYWGQGTQVTVSS | low polyreactivity
QVQLVESGGGLVQAGGSLRLSCAAAGLTFQPYVLGWYRQAPGKERELVAAISVRTTRTYYADSVKGRFTISRDNAKNTVYLQMNSLKPEDTAVYYCNVSGVLYPFVSYDYWGQGTHVTVSS | low polyreactivity
QVQLVESGGGLVQAGGSLRLSCAAAGRISYANAMGWYRQAPGKERELVASITYSAGSTYADSVKGRFTISRDNAKNTVYLQMNSLKPEDTAVYYCAKRPSQHYRSYLMDYWGQGTQVTVSS | low polyreactivity
QVQLVESGGGLVQAGGSLRLSCAAAGSNFLGYAMGWYRQAPGKERELVANITSSGSTSYADSVKGRFTISRDNAKNTVYLQMNSLKPEVTAVYYCAARFRRTYDYWGQGTQVTVSS | high polyreactivity
QVQLVESGGGLVQAGGSLRLSCAAAGSTFSYYTMGWYRQAPGKERELVAAITRSGGRTYYADSVKGRFTISRDNAKYTVYLQMNSLKPEDTAVYYCAREYYPDWGQGTQVTVSS | high polyreactivity
QVQLVESGGGLVQAGGSLRLSCAACGFTFRYNAMGWYRQAPGKERELVAAITRGGGNTYYADSVKGRFTISRDHAKNTVYLQMNSLKPEDTAVYYCAAYSNGGRYDYGYWGQGTQVTVSS | high polyreactivity
QVQLVESGGGLVQAGGSLRLSCAACGGIFWHYTLGWYRKAPGKERELVAAITRRGGSTYYADSVMGRFTISRDNAKNTVYLQMNSLKPEDTAVYYCAADFLPQSYNWYDYWGQGTQVTVSS | low polyreactivity
QVQLVESGGGLVQAGGSLRLSCAACGLTFDDYAMGWSRQAPGKERELVAAISKSGDGTYYADSVKGRFTISRDNAKNTVYLQMNSLKPEDTAVYYCNADAKYWGFVYWWFGEDNWGQGTQVPVSS | low polyreactivity
QVQLVESGGGLVQAGGSLRLSCAACGRIFGENAMGWYRQAPGKERELVASISSTDSTYYADSVKGRFTISRDNAKNTVYLQMNSLKPEDTAVYYSAARWISVWSEGAEHDYWGQGTQVTVSS | low polyreactivity
QVQLVESGGGLVQAGGSLRLSCAACGRIFNRYAMGWYRQAPGKERELVAAIRYSGGRTYYADSVKGRFTISRDNAKNTVYLQMNSLKPEDTAVYYCAADGQWYYAPFRGGDYENDYWGQGTQVTVSS | low polyreactivity
QVQLVESGGGLVQAGGSLRLSCAACGSIFYWNAMVWYRQAPGKERELVAAINSGDSTNYADSVKGRFTISRDNAKNTVYFQMNSLKPEDTAVYYCAASIYAALNGGPGYDYWGLGTQVTVSS | low polyreactivity
QVQLVESGGGLVQAGGSLRLSCAANGYIFLIYDRGWYRQSPGKEMELVAAISNSVGSTYADSVKGRFTISRDNAKNTDYLQMNSLKPEDTAVYYCNADSGPIDGRGGYWGQGTQVTVSS | low polyreactivity
QVQLVESGGGLVQAGGSLRLSCAANTMGCYRQAPGKERELVAAINTGSSTYYADSVKGRFRISRDNAKNTVYLQMYCLKPEDTAVYYCNASYPPYFEYRTRQYNYWGQGTQVTVSS | low polyreactivity
QVQLVESGGGLVQAGGSLRLSCAAPGSTFYLYAMGWYRQAPGKERELVAAISSGGRTNYADSVKGRFTISRDNAKNTVYLQMNSLKPEDTAVYYCAARIQCPTWSLYYYWGQGTQVTVSS | high polyreactivity
QVQLVESGGGLVQAGGSLRLSCAASAFIFRFYTMGWYRQATGKETELVAAITSRGDRTYYADSVKRRFTISRENAKNPVYLQMNSLKPEDTAVYYCAKATRGYRSPYGSIGYYYRGQGTQVTVSS | high polyreactivity
QVQLVESGGGLVQAGGSLRLSCAASAGILRQNTMGWYRQAPGKERELVAAISSSGGRTYYADSVKGRFTISRDNAKNTVYLKMNSLIPDDPAVYYCAGKIVSRYRVIYDYWGQGTQVTVSS | high polyreactivity
QVQLVESGGGLVQAGGSLRLSCAASALTFFYYAMGWYRQAPGKERELVAAISWSGGRTYYADSVKGRFTISRDNAKNTVYLQMNSLKPEDTAVYYCSADYITAHSSYSTYGYWGQGTQVTVSS | low polyreactivity
QVQLVESGGGLVQAGGSLRLSCAASARIIGTYAMGWYRQATGKERELVAASTRGGTTYYADSVKGRFTISRDNAKNTVYLQMNSLIPEDTAVYYCATGPAIRYDYWGQGTQVTVSS | low polyreactivity
QVQLVESGGGLVQAGGSLRLSCAASARIIYSNAMGWYRQAPGKERELVATISTGGSTYADSVKGRFTISRDNAKNTVYLQINSLKPEDTAVYYCAVDEWRWRVGAVAYYYWGQGTQVTVSS | low polyreactivity
QVQLVESGGGLVQAGGSLRLSCAASARILRRNAMGWYRQAPGKEREFVAAITWRGGSTYYADSVKGRFTISRDNAKNTVYLQMNSLKPEDTAVYYCAADTYSVEYVLPYYYWGQGTQVTVSS | high polyreactivity
QVQLVESGGGLVQAGGSLRLSCAASARNFGYYAMGWYRPAPGKERELVAAISSGGNTYYADSVKGRFTISRDNAKNTVYLQMNSLKPEDTAVYYCNVVYVGWQYGYDYWGQGTQVTVSS | low polyreactivity
